Measurements from article PMC3169560 (PLoS Pathogens, 2011).

Target: T1, HIV-1 Env glycoprotein complex (gp120/gp41) with full-length gp41, on HIV-1 particles of proviral clone R9 … (HIV-1 group M subtype B, proviral clone …)
T1 construct: also called WT; wild-type HIV-1; copies: 3 + 3
Test: immunofluorescence imaging of antibody binding to single immobilised virions; IMMATURE, protease-defective particles (R9.PR- or R9Tr712.PR-) with GFP-Vpr on poly-D-lysine coated dishes; unfixed virions incubated with IgG or CD4-IgG2 (0.25 µg/mL) for 2 h at room temperature, fixed in 2% paraformaldehyde, Cy5 anti-human IgG, confocal microscopy; median average Cy5 intensity per GFP-positive particle; CD4-IgG2 results …
Settings: one partner purified

B1: HIV-1 gp41 mAb 4E10 (full-length IgG) (antibody, V domains shown)
VH: QVQLVQSGAEVKRPGSSVTVSCKASGGSFSTYALSWVRQAPGRGLEWMGGVIPLLTITNYAPRFQGRITITADRSTSTAYLELNSLRPEDTAVYYCAREGTTGWGWLGKPIGAFAHWGQGTLVTVSS
VL: EIVLTQSPGTQSLSPGERATLSCRASQSVGNNKLAWYQQRPGQAPRLLIYGASSRPSGVADRFSGSGSGTDFTLTISRLEPEDFAVYYCQQYGQSLSTFGQGTKVEVK
notes: copies: 2 + 2
With B1 the “fold increase in binding to immature over mature virions, particles with an average intensity above 50 a.u.” value was 6 fold and the “median average intensity per particle, PR- image over wild-type image” value was 1.4 fold.
